3 variants from IntAct's records for PubMed 25114243 can be followed below.

The labels stand for the following.
B1: Ras-related protein Rab-5C (Homo sapiens), P51148 (parent)
chain: MAGRGGAARPNGPAAGNKICQFKLVLLGESAVGKSSLVLRFVKGQFHEYQESTIGAAFLTQTVCLDDTTVKFEIWDTAGQERYHSLAPMYYRGAQAAIVVYDITNTDTFARAKNWVKELQRQASPNIVIALAGNKADLASKRAVEFQEAQAYADDNSLLFMETSAKTAMNVNEIFMAIAKKLPKNEPQNATGAPGRNRGVDLQENNPASRSQCCSN
partner: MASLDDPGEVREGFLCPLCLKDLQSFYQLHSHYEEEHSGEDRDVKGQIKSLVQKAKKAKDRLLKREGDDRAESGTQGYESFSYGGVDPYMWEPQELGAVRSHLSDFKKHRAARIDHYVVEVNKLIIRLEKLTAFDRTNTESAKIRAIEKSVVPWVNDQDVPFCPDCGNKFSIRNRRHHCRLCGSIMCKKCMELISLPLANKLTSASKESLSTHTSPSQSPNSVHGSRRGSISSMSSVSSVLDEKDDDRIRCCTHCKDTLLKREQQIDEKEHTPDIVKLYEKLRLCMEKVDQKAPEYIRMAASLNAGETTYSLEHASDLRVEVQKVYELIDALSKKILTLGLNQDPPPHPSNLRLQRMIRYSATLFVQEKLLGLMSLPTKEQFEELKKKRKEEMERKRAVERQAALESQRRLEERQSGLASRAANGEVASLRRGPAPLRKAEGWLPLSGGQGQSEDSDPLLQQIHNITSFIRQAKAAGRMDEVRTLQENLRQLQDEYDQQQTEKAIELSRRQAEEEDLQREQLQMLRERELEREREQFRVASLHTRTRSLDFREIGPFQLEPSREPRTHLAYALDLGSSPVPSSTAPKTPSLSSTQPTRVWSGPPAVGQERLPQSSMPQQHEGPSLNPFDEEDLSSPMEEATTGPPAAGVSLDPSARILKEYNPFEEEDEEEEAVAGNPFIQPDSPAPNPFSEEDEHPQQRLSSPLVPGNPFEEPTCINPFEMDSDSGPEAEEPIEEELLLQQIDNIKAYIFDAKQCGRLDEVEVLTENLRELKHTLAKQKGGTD
B2: Ras-related protein Rab-5C (Homo sapiens), P51148 (parent)
chain: B1 chain
partner: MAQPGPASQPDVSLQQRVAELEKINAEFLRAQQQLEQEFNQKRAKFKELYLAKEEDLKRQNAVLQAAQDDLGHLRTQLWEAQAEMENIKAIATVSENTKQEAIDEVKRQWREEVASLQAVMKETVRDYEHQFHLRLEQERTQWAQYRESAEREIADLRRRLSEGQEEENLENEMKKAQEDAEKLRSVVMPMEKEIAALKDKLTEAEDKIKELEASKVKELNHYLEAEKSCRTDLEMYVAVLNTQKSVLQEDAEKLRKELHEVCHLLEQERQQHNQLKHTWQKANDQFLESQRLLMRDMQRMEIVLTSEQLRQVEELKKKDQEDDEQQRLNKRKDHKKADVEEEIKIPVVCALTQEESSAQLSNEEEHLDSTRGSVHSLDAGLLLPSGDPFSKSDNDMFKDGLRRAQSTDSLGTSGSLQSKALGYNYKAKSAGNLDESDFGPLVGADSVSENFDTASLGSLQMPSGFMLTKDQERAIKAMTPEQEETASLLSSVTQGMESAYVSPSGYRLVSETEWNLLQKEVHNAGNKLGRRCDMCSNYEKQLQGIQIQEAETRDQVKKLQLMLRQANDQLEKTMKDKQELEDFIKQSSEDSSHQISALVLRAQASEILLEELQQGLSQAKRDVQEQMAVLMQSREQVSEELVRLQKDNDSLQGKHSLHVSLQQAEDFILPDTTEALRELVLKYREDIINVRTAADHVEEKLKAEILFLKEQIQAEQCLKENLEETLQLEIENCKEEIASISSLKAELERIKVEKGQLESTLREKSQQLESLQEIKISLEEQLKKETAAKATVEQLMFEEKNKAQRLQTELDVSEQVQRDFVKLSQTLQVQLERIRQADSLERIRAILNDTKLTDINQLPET
B3: Ras-related protein Rab-5C (Homo sapiens), P51148 (parent)
chain: B1 chain

In one test the parent is B1. Conditions: with rbns5_human RBSN.
For R92A, the “effect of a mutation on the interaction” value is on record as “decreasing interaction”.

The next test covers variants of B2. To be noted: with rabe1_human RABEP1, Q15276.
Regarding R92A, the “effect of a mutation on the interaction” value is “with no effect”.

The variants in another test derive from B3. Conditions: with eea1_human EEA1, Q15075.
eea1_human EEA1, Q15075, sequence (Q15075 whole entry): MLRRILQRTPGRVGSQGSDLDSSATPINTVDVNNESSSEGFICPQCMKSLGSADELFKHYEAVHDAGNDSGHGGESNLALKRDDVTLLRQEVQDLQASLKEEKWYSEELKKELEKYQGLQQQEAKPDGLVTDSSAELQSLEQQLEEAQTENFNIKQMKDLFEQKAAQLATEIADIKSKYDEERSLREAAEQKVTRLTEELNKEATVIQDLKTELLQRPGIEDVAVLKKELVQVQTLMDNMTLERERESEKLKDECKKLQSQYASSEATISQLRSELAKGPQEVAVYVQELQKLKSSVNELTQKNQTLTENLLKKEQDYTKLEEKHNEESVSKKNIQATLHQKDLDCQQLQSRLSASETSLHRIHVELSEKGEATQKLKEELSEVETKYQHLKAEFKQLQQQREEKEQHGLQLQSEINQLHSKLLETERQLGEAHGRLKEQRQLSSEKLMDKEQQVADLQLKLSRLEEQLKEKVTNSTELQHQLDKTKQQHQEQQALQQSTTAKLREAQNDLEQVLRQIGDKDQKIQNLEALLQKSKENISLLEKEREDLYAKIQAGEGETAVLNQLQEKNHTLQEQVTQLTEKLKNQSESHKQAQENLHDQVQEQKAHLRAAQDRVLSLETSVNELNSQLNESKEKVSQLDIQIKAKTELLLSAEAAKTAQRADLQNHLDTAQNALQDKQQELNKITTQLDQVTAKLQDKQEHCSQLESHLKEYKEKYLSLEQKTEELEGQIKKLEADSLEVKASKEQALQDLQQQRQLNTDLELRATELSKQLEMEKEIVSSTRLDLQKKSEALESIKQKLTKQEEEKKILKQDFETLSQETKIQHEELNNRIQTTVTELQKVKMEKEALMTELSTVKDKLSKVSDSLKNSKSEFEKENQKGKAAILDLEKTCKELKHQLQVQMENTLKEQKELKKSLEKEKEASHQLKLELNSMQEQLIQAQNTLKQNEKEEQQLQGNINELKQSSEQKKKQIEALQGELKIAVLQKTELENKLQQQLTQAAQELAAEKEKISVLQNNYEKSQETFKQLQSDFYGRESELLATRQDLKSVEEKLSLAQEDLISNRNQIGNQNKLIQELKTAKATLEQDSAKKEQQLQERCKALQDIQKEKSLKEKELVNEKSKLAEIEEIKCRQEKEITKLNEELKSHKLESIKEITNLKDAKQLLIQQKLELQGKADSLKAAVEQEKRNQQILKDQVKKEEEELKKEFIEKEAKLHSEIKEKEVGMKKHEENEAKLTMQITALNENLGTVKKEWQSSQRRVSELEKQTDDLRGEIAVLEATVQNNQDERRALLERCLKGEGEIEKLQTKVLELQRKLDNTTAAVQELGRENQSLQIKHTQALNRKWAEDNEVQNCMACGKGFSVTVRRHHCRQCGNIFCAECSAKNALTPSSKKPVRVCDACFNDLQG
As for R92A, the “effect of a mutation on the interaction” value is listed as “decreasing interaction”.
